Key:
[1] = target: HpNikR mutant M6 (C96S) (Helicobacter pylori); test: crystal structure
[2] = target: HpNikR mutant M5 (H74G, H75G) (Helicobacter pylori); test: crystal structure

With “HpNikR mutant M6 (C96S) (natural protein)” the stoichiometry N [1] was 4.

“HpNikR mutant M5 (H74G, H75G) (natural protein)” gave a stoichiometry N [2] of 4.

Reference: publication PMC2875016
